Measured values taken from patent publication US20220235136A1, “METHODS AND COMPOSITIONS FOR TREATING A DISEASE OR DISORDER” (YALE UNIVERSITY, priority 2019, published 2022).

Molecular target: T1, CD93 (Homo sapiens, UniProt Q9NPY3)
T1 construct: expressed in transfected cells; host or cells: 293 cells (CD93+ 293)
T1 sequence (Q9NPY3 22-652): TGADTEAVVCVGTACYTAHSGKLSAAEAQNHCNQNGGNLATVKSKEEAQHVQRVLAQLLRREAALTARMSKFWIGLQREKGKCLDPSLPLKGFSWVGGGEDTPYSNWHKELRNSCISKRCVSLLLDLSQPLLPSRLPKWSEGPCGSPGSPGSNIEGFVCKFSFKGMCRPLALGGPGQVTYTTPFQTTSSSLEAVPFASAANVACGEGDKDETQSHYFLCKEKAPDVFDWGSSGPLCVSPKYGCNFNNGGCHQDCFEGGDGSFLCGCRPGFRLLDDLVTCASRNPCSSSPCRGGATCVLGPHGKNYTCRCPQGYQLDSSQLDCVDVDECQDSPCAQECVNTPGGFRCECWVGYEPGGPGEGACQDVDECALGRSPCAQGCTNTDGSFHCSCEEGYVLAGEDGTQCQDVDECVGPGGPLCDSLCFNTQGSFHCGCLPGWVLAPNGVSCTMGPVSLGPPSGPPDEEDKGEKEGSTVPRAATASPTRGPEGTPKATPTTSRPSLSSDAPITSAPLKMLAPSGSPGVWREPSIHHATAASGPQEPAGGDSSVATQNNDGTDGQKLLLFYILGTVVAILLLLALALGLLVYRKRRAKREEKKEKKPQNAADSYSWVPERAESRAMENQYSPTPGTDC
Assay: binding of Ig fusion proteins to CD93 transfectant (flow cytometry)
Conditions: flow cytometry
Description: FIGS. 10A-10B show identification of the binding domain on IGFBP7 for CD93. Each extracellular domain for IGFBP7, including insulin binding (IB). Kazal, and Ig, was swapped with the corresponding domain on IGFBPL1 using PCR cloning and fused to a C-terminal Ig. These chimeric mutants were transiently expressed in HEK293T cells and supernatants were used to stain CD93 transfectant. FIG. 10A depicts whether multiple chimeric IGFBP7 mutants bind to CD93. FIG. 10B depicts various human genes containing IB-domain constructed onto an expression vector containing Fc-Tag. Constructs were transiently transduced into HEK293T cells to produce Fc tagged fusion proteins in the supernatant. Supernatant was used to stain CD93 transfectant by flow cytometry. Binding index represents the ratio of binding MFI of CD93 transfectant to control cells.
The IGFBP7-IGFBPL1 chimeras were generated by two-step PCR. […]
Cell surface and intercellular staining and analysis by flow cytometry were followed the protocol previously described (71). Dead cells were excluded with SYTOX® (Blue Dead Cell Stain Kit (Thermo Fisher Scientific). Flow cytometric analysis was conducted with a BD FACS Calibur or a BD LSRFortessa™ cell analyzer (BD Bioscience, Franklin Lakes, N.J. USA), and then data were analyzed by FlowJo software (Tree Star Inc.)

B1: IGFBPL1: a IGFBP-related protein that does not bind CD93 (protein, UniProt Q8WX77 26-278, looked up)
Insulin-like growth …: LGIRDVGGRRPKCGPCRPEGCPAPAPCPAPGISALDECGCCARCLGAEGASCGGRAGGRCGPGLVCASQAAGAAPEGTGLCVCAQRGTVCGSDGRSYPSVCALRLRARHTPRAHPGHLHKARDGPCEFAPVVVVPPRSVHNVTGAQVGLSCEVRAVPTPVITWRKVTKSPEGTQALEELPGDHVNIAVQVRGGPSDHEATAWILINPLRKEDEGVYQCHAANMVGEAESHSTVTVLDLSKYRSFHFPAPDDRM
- binding to CD93 293 cells / CD93 transfectant: does not bind
